B1: scFv B1, purified (c-myc and 6xHis tags) (scFv)
scFv: MAEVQLVESGGSLVKPGGSLRLSCAASGFTFSNYDMNWVRQAPGKGLEWISDIDGSSRNIYYADFVKGRFTISRDNATNSLYLQMNSLRAEDTAVYYCVRSSYYDNGMDVWGRGTLVTVSSGGGGSGGGGSGGGGSQSVLTQPASVSGSPGQSITISCAGTSSDVGGYDGVSWYQQHPGKAPKLMIYYDSYRPSGVSNRFSGSKSGNTASLTISGLQAEDEADYYCSSYTYYSTRVFGGGTKLAVLG
notes: VH of scFv B1 as printed; linker of the HuscI library between VH and VL; VL of scFv B1; Selected from the human synthetic HuscI library; The scFv was moved as an NcoI-NotI fragment from pHEN-HuscI into pET-23NN, which adds c-myc and 6xHis at the 3' end; source: E. coli BL21(DE3)pLysS, pET-23NN vector, purified (Ni-NTA, dialysed in MilliQ water); not shown: c-myc, C-terminal, kept; His6, …
B2: scFv D7, purified (c-myc and 6xHis tags) (scFv)
scFv: MAEVQLVESGGSLVKPGGSLRLSCAASGFTFSNYYMNWVRQAPGKGLEWISDIYGSSRYISYADFVKGRFTISRDNATNSLYLQMNSLRAEDTAVYYCVRSSSNDGGGMDVWGRGTLVTVSSGGGGSGGGGSGGGGSQSVLTQPASVSGSPGQSITISCAGTSSDVGGNNYVSWYQQHPGKAPKLMIYYDSYRPSGVSNRFSGSKSGNTASLTISGLQAEDEADYYCSSYTYSSTRVFGGGTKLAVLG
notes: VH of scFv D7 as printed; linker of the HuscI library between VH and VL; VL of scFv D7; Selected from the human synthetic HuscI library; The scFv was moved as an NcoI-NotI fragment from pHEN-HuscI into pET-23NN, which adds c-myc and 6xHis at the 3' end; source: E. coli BL21(DE3)pLysS, pET-23NN vector, purified (Ni-NTA, dialysed in MilliQ water); not shown: c-myc, C-terminal, kept; His6, …

Target: T1, commercial recombinant human full-length wtTDP-43 (Abcam, ab224788) (human, UniProt Q13148 1-414)
T1 construct: TDP-43 (TARDBP), human, wild type, recombinant full length; also called recombinant wtTDP-43; source: bought: Abcam, ab224788
T1 sequence (Q13148 whole entry): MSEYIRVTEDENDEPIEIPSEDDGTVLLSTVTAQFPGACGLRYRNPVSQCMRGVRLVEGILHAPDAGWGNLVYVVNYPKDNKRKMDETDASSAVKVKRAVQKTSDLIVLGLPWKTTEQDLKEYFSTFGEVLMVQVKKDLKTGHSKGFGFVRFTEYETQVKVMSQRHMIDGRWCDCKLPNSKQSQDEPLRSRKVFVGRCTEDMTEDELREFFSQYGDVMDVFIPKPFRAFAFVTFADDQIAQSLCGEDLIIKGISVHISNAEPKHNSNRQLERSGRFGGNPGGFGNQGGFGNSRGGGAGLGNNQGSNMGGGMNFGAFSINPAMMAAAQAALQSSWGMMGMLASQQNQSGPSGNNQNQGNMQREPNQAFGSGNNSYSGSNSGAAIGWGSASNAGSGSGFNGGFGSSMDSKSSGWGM
Test: ELISA; indirect ELISA: wells coated overnight at 4 °C with commercial human wtTDP-43 at 1 µg/mL in PBS; purified scFv at 1, 5 or 10 µg/mL, 1 h at RT; detected with HRP-conjugated anti-6xHis antibody, absorbance at 450 nm
Conditions: both partners purified

Binder | fold increase of the ELISA signal over the control scFv 13R4 at 5 µg/mL [fold] | fold increase of the ELISA signal over the control scFv 13R4 at 10 µg/mL [fold]
B1 | 5 | 3
B2 | 2 | 2
